Measured values taken from the nanobody polyreactivity screen of Harvey et al. (2022).

Experiment: yeast display, Sf9 membrane polyspecificity reagent, FACS + sequencing; frameworks hold sequencing errors
Summary of the method: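 Polyreactivity labels are assigned by the sorting gate from which each nanobody was recovered. The gates were low and high (top ~1%), set on anti-HA fluorescence for expression and streptavidin fluorescence for reagent binding. Before sorting, galactose-induced (36–48 hours) yeast display cells were stained for 1 hour at 4 °C with 10% biotinylated, detergent-solubilized Sf9 membrane reagent.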

Sequence	polyreactivity (PSR sort gate)
QVQLVESGGGLVQAGGSLRLSCAASGRTFPRNGMGWYRQAPGKERELVAAISWSGGRTYYADSVKGRFTISRDNAKNTVYLQMNSLKPEDTAVYYCNALYFRKAGYWGKGTQVTVSS	high polyreactivity
QVQLVESGGGLVQAGGSLRLSCAASGRTFPSNVMGWYRQAPGKEREFVAAITTRGGNTRYADSVKGRFTISRDNAKNTVYLQMNSLKPEDTAVYYCAAKVKPGYDYWGQGTQVTVSS	low polyreactivity
QVQLVESGGGLVQAGGSLRLSCAASGRTFPSYTMGWYRQAPGKERELVAAISKSGGNTYYADSVKGRFTISRDNAKNTVYLQMNSLKPEDTAVYYCNADTYALGAAVIPGDEYWGQGTQVTVSS	low polyreactivity
QVQLVESGGGLVQAGGSLRLSCAASGRTFPVNAMGWYRQAPGKERELVAAIRRRGGSTYYADSVKGRFTISRDNAKNTVYLQMNSRKPEDTAVYYCAADKSSSFSYSYGYWGHGTQVTVSS	low polyreactivity
QVQLVESGGGLVQAGGSLRLSCAASGRTFPVYAMGWYRQAPGKERELVATIRRRDGSTYADSVKGRFTISRDNAKNTVYLQMNSLKPEDTAVYYCNAAYSQATPWYYAWYDYCGQGTQVTVSS	high polyreactivity
QVQLVESGGGLVQAGGSLRLSCAASGRTFPWYTMGWYRQAPGKERELVAAITRSSGSAYYADSVKGRFTISRDTAKNPVYLQMNSLKQEDTAVYYCAARYWVAGFRGRPYDYWGQGTQVTVSS	high polyreactivity
QVQLVESGGGLVQAGGSLRLSCAASGRTFPWYVMGWYRQAPGKERELVAAISSGGGKYYADSVKGRFTISRDNAKNTVFLQMNSLKPEDTAVYYCAGRLYYRRSFVREMYYWGQGSQVTVSS	high polyreactivity
QVQLVESGGGLVQAGGSLRLSCAASGRTFPYKAMGWYRQAPGKERELVAVISSGGGRTYYADSVKGRFTISRDNAKNTVYLQMNSLKPEDTAVYYCNKGGYAIRYDYYWGQGTQVTVSS	high polyreactivity
QVQLVESGGGLVQAGGSLRLSCAASGRTFPYNAMGWYRQAPGKERELVAAITSSGGSTYYADSVKGRFTISRDNAKNTVYLQMNSLKPEDTAVYYCAKGYYSPNYYYWGQGTQVTVSS	high polyreactivity
QVQLVESGGGLVQAGGSLRLSCAASGRTFPYNVMGWYRQAPRKERELVARITRGGSTDYADSVKGRFTISRDNAKNTVYLLMNSLKPEDTAVYYCAAAIGHFERFYWGQGTQVTVSS	low polyreactivity
QVQLVESGGGLVQAGGSLRLSCAASGRTFPYYAMGWYRQAPGKERELVAAISSSGGSTYYADSVKGRFTISRDNAKNTVNLQMNSLKPEDTAVYYCAARAPYSYSGYGYWGQGTQVTVSS	high polyreactivity
QVQLVESGGGLVQAGGSLRLSCAASGRTFPYYAMGWYRQAPGKERELVATITRGGSTYYADSVKGRFTISRDNAKNTVYLQMNSLKPEDTAVYYCNADYWGHRFYFPGRRDYWGQGTQVTVSS	low polyreactivity
QVQLVESGGGLVQAGGSLRLSCAASGRTFQDYAMGWYRQAPGKERELVAVINSGGSTYYADSVKGRFTISRDNAKNTVYLQMNSLKPEDTAVYYCAKGYWFYPWYHGYYWGQGTQVTVSS	high polyreactivity
QVQLVESGGGLVQAGGSLRLSCAASGRTFQFYAMGWYRQAPGKERELVAAITSGGSTYYADSVKGRFTISRDNAKNTVYLQMNSLKPEDTAVYYCNAKYNGYYRRFSEYDYWGQGTQVTVSS	high polyreactivity
QVQLVESGGGLVQAGGSLRLSCAASGRTFQGYTMGWYRQAPGKERELVAAITGGVGSTYYADSVKGRFTISRDNAKNTVYLQMNSLKPEDTAVYYCNTVSYGYTDLYIFYTGYYYWGQGTQVTVSS	low polyreactivity
QVQLVESGGGLVQAGGSLRLSCAASGRTFQIYAMGWYRQAPGKERELVAAISRRGGSTYYADSVKGRFTISRDNAKNTVYLQMNSLKPEDTAVYYCNVVHWRGEYSYAGYDYWGQGTQVTVSS	high polyreactivity
QVQLVESGGGLVQAGGSLRLSCAASGRTFQKNTMGWYRQAPGKERELVAAIDYSATTTYYADSVKGRFTSSRDNAKNTVYLQMNSLKPEDTAVYYCAARWSYPRWEFDYWGQGTQVTVSS	high polyreactivity
QVQLVESGGGLVQAGGSLRLSCAASGRTFQKYVMGWYRQEPGKEREIVAAISGGGGRTYYADSVKGRFTISRDNAKNTVYLQMNSLKPEDTAVYYCAARGLGKELDRFYYWGQGTQVTVSS	high polyreactivity
QVQLVESGGGLVQAGGSLRLSCAASGRTFQNNAMGWYRQAPGKERELVAAISRSGASTYYADSVKGRFTISRDNAKNTVYLQMNSLKPEDTAVYYCAARYQRTAYDYWGQGTQVTVSS	low polyreactivity
QVQLVESGGGLVQAGGSLRLSCAASGRTFQPYAMGWYRQAPGKERELVAAITSIGGSTFYADSVKGRFTISRDNAKNTVYLQMNSLKPEDTAVYYCARRGYYRSIWERDYWGQGTQVTVSS	low polyreactivity
QVQLVESGGGLVQAGGSLRLSCAASGRTFQQNAMGWYRQAPGKERELVAAINSRGGRTYYADSVKGRFTISRDYAKNTVYLQMNSLKPEDTAVYYCAARYYWGQGTQVTVSS	high polyreactivity
QVQLVESGGGLVQAGGSLRLSCAASGRTFQRNAMGLYRQEPGKERELVAAISTRGGSTYYADSVKGRFTISRDNAKNTVYLQMNSLKPEDTAVYYCAKDPTLTRGYKEGGGYDYLGQGTQVTVSS	high polyreactivity

Sequence	polyreactivity (PSR sort gate)
QVQLVESGGGLVQAGGSLRLSCAASGRTFQVYAMGWYRQAPGKERELVAAISSSGGITYYADSVKGRFTISRDNAKNTVYLQMNSLKPEDTAVYYCNTLYVSSNEYWGQGTQVTVSS	high polyreactivity
QVQLVESGGGLVQAGGSLRLSCAASGRTFQWYTMGWYRQAPGKERELVAAISWSGTSTYYADSVKGRFTISRDIAKNTVYLQMNILNPEDTAVYYCAAEVIGRYYRLDYWGQGPQVTVSS	low polyreactivity
QVQLVESGGGLVQAGGSLRLSCAASGRTFQWYTMGWYRQAPGKERELVAGISWRGGSTYYADSVKGRFTISRDNAKNTVYLQMNSLKPEDTAVYYCAALASRLTGRDYWGQGTQVTVSS	high polyreactivity
QVQLVESGGGLVQAGGSLRLSCAASGRTFQYNAMGWYRQAPGKERELVAAISWSGGSTYYADSVKGRFTISRDNAKNTVYLQMNSLKPEDTAVYYCNARTLFKWRHGHYYAYDYWGQGTQVTVSS	high polyreactivity
QVQLVESGGGLVQAGGSLRLSCAASGRTFQYYAMGWYRQAPGKERELVAAITSGGSTYYADSVKGRFTISRDNAKNTVYLQMNSLKPEDTAVYYCAATFYYSGHDDYWGQGTQVTVSS	low polyreactivity
QVQLVESGGGLVQAGGSLRLSCAASGRTFQYYAMGWYRQAPGKERELVAAITSGGSTYYADSVKGRFTISRDNAKNTVYLQMNSLKTEDTAVYYCAADFLYYSSGGKMDYWGQGTQVTVSS	low polyreactivity
QVQLVESGGGLVQAGGSLRLSCAASGRTFQYYAMGWYRQAPGKERELVARINRSGGSTYYADSVKGRFTISRDNAKNTVYLQMNSLKPEDTAVYYCAADYLSRSPAYEHYYWGQGTQVTVSS	high polyreactivity
QVQLVESGGGLVQAGGSLRLSCAASGRTFQYYTMGWYRQAPGKERELVAAITWRGGTTYYADSVKGRFTISRDNAKNTVYLQMNSLKPEDTAVYYCAAYSPDYGFDYWGQGTQVTVSS	high polyreactivity
QVQLVESGGGLVQAGGSLRLSCAASGRTFRANAMGWYRQAPGKERELVAAISQRGGNTYYADSVKGRFTISRDNAKNTVYLQMNSLKPEDTAVYYCAADITTYRRGRYEYEYWGQGTQVTVSS	high polyreactivity
QVQLVESGGGLVQAGGSLRLSCAASGRTFRANAMGWYRQAPGKERELVAAITWDGGSTYYADSVKGRFTISRDNAKNTVYLQMNSLKPEDTAVYYCNTDPYLWGQGTQVTVSS	low polyreactivity
QVQLVESGGGLVQAGGSLRLSCAASGRTFRANTMGWYRQAPGKERELVAAINWSGGSTYYADSVKGRFTISRDNAKNTVYLQMNSLKPEDTAVYYCAKRVSVSYRKSTYDYWGQGTQVTVSS	high polyreactivity
QVQLVESGGGLVQAGGSLRLSCAASGRTFRAYAMGWYRQAPGKERELVAAITSGGSTYADSVKGRFTISRDNAKNTVYLQMNSLKPEDTAVYYCAADGYKLFYSKFRYVQYGYWGQGTQVTVSS	high polyreactivity
QVQLVESGGGLVQAGGSLRLSCAASGRTFRAYAMGWYRQAPGKETELVASISRRGGSTYYADSVKGRFTISRDNAKNTVYLQMNSLKPEDSAVYYCAASDNYLQYDYWGQGTQVTVSS	high polyreactivity
QVQLVESGGGLVQAGGSLRLSCAASGRTFRAYVMGWYRQAPGKERELVAAFTGDGGSTYYADSVKGRFTISRDNAKNTVYLQMNSLKPEDTAVYYCAAGYVTVYGYYEYWGQGTQVTVSS	high polyreactivity
QVQLVESGGGLVQAGGSLRLSCAASGRTFRDYTMGWYRQAPGNERELVAAITSTGDTNYADSVKGRFTISRDNAKNTVYLQMNSLKPEDTALNYCATQTGEEYQAPLIYDYWGQGTQVTVSS	low polyreactivity
QVQLVESGGGLVQAGGSLRLSCAASGRTFRFNAMGWYRQAPGKESELVAAISSSGRTYYADSVKGRFTISRDNAKNTVYLQMNSLKPEDTAVYYCNKDPYLKLKMDYWGQGTQVTGSS	high polyreactivity
QVQLVESGGGLVQAGGSLRLSCAASGRTFRFYALGWYRQAPGKEREFVAAISRSVGSTYYADSVKGRFTISRDNAKHTVYLQMNSLKPEDTAVYYCAARVFRGLGEYYWGQGTQVTVSS	high polyreactivity
QVQLVESGGGLVQAGGSLRLSCAASGRTFRFYAMGWYRQAPGKERELVAAISASGGGTYYADSVKGRFTISRDNAKHTVYLQMNCLKPEDTAVYYCATRRSYKYYWGQGTQVTVSS	high polyreactivity
QVQLVESGGGLVQAGGSLRLSCAASGRTFRGNAMGWYRQAPGKERELVATITFSGGSTYYADSVKWRFTISRDNAKNTVYLQMNSLKPEDTAVYYCAVRGLHLVWVPFGYDYWGQGTQVTVSS	low polyreactivity
QVQLVESGGGLVQAGGSLRLSCAASGRTFRGYAMGWYRQAPGKEREFVAAITWTSGSTYYADSVKGRFTISRDNAKNTVYLQMNSLKPEDTAVYYCAARVYSQALRLWGNNYWGQGTQVTVSS	high polyreactivity
QVQLVESGGGLVQAGGSLRLSCAASGRTFRGYAMGWYRQAPGKERELVAAITSGGSTNYADSVKGRFTISRDNAKNTVYLQMNSLKPEDTAVYYCAAGRSTGQYRYYYWGQGTQVTVSS	high polyreactivity
